Reference: article PMC3422339, “Interactions and CCAAT-Binding of Arabidopsis thaliana NF-Y Subunits” (PLoS ONE, 2012)

Tests used:
Settings in all cases: both partners purified
[1] = target: T1, His-tagged recombinant AtNF-YC3 (Arabidopsis thaliana, UniProt Q9ZVL3 1-217); assay: co-renaturation of denatured subunits; single His-tagged HFD subunits from E. coli inclusion bodies, denatured and renatured when mixed together
T1 construct: AtNF-YC3, Arabidopsis thaliana; source: E. coli, purified (Nickel-agarose); found in inclusion bodies, denatured and renatured
T1 sequence (looked up): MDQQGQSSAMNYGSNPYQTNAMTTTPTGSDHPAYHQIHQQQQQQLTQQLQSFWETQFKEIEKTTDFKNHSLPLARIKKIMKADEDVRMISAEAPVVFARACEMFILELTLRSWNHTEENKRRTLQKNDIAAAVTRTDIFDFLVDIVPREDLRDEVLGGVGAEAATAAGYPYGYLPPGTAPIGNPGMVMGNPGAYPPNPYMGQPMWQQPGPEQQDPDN

[2] = target: T2, His-tagged recombinant AtNF-YC7 (Arabidopsis thaliana, UniProt Q9FGP8 1-212); assay: as above
T2 construct: AtNF-YC7, Arabidopsis thaliana; source: E. coli, purified (Nickel-agarose); found in inclusion bodies, denatured and renatured
T2 sequence (looked up): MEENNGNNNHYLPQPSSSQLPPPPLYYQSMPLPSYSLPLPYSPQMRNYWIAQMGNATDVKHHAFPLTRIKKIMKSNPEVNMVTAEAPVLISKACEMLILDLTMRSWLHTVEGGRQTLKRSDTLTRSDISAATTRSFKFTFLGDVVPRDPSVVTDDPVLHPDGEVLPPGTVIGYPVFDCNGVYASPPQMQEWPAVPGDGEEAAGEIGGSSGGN

[3] = target: T3, AtNF-YB2/AtNF-YC3 dimer (recombinant, renatured together) (Arabidopsis thaliana, UniProt Q9FGJ3 1-190; Q9ZVL3 1-217); assay: native gel or EMSA; Figure 5A: recombinant AtNF-YB/AtNF-YC dimers with recombinant AtNF-YA6 or recombinant mouse NF-YA; 32P-labelled CCAAT oligonucleotide; NF-Y buffer, 15 min 20°C; 4.5% polyacrylamide; the read-out is the trimer bound to DNA
T3 construct: AtNF-YB2, Arabidopsis thaliana; as the chain of m23; AtNF-YC3, Arabidopsis thaliana; as the chain of m43; source: E. coli, each subunit purified from inclusion bodies, denatured and renatured when mixed together
T3 sequence (looked up) 1: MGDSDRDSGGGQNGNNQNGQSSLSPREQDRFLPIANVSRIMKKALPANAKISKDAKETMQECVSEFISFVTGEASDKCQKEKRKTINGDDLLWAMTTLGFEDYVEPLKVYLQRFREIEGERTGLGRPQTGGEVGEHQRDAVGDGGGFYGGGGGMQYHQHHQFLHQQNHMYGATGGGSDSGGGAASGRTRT
T3 sequence (looked up) 2: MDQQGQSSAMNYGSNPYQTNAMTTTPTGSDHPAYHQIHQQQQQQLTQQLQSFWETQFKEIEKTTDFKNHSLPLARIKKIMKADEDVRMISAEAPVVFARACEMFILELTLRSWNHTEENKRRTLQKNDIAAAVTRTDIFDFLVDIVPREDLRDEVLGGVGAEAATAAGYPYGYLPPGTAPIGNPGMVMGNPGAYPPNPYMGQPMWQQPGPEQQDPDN

B1: His-tagged recombinant AtNF-YB2 (natural protein, Arabidopsis thaliana, UniProt Q9FGJ3 1-190, looked up)
chain: MGDSDRDSGGGQNGNNQNGQSSLSPREQDRFLPIANVSRIMKKALPANAKISKDAKETMQECVSEFISFVTGEASDKCQKEKRKTINGDDLLWAMTTLGFEDYVEPLKVYLQRFREIEGERTGLGRPQTGGEVGEHQRDAVGDGGGFYGGGGGMQYHQHHQFLHQQNHMYGATGGGSDSGGGAASGRTRT
notes: AtNF-YB2, Arabidopsis thaliana; also called His-AtNF-YB2; source: E. coli BL21, purified (Nickel-agarose); found in inclusion bodies, denatured and renatured
**Q.** What does the source list for B1?
**A.** binding result [1]: binds; binding result [2]: binds

B2: recombinant AtNF-YA6 (His-tagged) (natural protein)
chain: not shown
notes: AtNF-YA6, Arabidopsis thaliana; 308 residues as printed; source: E. coli, purified (Nickel-agarose)
**Q.** Does B2 bind [3]?
**A.** binds

B3: recombinant mouse NF-YA (347 residues) (natural protein)
chain: not shown
notes: mouse NF-YA; 347 residues as printed; source: recombinant
**Q.** Does B3 bind [3]?
**A.** binds
